One block for each binder: values may come before it.
Legend:
[1] = biological target: T1, T7-tagged full length Ipaf (human, UniProt Q9NPP4 1-1024); assay: co-immunoprecipitation from 293T lysates (IP anti-Flag, blot anti-T7)
T1 construct: also called T7-Ipaf; T7-tagged Ipaf
Experimental: 24 hours following transfection, cells were lysed in 50 mM Tris/HCl pH 7.6, 150 mM NaCl containing 0.5% NP-40, 10 μg.ml⁻¹ leupeptin and aprotinin and 0.1 mM PMSF and clarified by centrifugation at 15,000 g for 15 min. The clarified lysates were preabsorbed on protein G-Sepharose (Pharmacia) and then incubated with anti-FLAG-M5 monoclonal antibody (Eastman Kodak Co.) for 2 hours, followed by protein G-Sepharose agarose IgG beads. Immune complexes were washed extensively in the lysis buffer and eluted by boiling in an SDS sample buffer. The eluted proteins were resolved by SDS-PAGE and detected by Western analysis with a horseradish peroxidase-conjugate T7-antibody (Novagen). GST Pull-down assays were performed as described (Ahmad et al., Cancer Res 57:615-9, 1997).
24 hours following transfection, cells were lysed and the lysates immunoprecipitated (IP) with an anti-Flag antibody. The immunoprecipitates were immunoblotted (IB) with an anti-T7 antibody. Expression of T7-Ipaf or Flag-tagged constructs was determined by immunoblotting (IB) with anti-T7 or anti-Flag antibodies, respectively. […] This association was dependent on the N-terminal CARD as deletion of this domain prevented the CARD-truncated Ipaf mutant from interacting with the full-length Ipaf. Moreover, the epitope-tagged CARD of Ipaf was able to co-immunoprecipitate the full-length protein.

Ipaf 1-661 = biological target: T2, Ipaf 1-661
T2 chain: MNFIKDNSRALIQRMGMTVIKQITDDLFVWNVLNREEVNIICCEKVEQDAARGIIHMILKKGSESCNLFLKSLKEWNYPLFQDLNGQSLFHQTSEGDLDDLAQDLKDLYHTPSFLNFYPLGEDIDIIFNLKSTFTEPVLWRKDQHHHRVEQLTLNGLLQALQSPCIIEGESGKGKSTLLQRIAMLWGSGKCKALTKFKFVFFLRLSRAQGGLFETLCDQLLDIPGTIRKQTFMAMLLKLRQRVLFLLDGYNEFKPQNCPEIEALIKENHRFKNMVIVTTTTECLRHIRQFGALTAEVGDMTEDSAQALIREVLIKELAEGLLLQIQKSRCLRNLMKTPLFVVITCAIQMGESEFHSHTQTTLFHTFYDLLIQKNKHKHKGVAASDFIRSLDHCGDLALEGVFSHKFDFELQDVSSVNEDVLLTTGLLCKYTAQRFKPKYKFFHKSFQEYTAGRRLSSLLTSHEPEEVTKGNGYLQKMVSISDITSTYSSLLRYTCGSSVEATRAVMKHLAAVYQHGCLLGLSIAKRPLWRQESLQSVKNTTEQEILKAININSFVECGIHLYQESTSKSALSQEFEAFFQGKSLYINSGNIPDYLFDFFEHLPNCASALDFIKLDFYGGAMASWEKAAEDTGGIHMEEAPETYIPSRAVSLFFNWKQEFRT

[2] = biological target: T3, T7-tagged full length Ipaf
T3 chain: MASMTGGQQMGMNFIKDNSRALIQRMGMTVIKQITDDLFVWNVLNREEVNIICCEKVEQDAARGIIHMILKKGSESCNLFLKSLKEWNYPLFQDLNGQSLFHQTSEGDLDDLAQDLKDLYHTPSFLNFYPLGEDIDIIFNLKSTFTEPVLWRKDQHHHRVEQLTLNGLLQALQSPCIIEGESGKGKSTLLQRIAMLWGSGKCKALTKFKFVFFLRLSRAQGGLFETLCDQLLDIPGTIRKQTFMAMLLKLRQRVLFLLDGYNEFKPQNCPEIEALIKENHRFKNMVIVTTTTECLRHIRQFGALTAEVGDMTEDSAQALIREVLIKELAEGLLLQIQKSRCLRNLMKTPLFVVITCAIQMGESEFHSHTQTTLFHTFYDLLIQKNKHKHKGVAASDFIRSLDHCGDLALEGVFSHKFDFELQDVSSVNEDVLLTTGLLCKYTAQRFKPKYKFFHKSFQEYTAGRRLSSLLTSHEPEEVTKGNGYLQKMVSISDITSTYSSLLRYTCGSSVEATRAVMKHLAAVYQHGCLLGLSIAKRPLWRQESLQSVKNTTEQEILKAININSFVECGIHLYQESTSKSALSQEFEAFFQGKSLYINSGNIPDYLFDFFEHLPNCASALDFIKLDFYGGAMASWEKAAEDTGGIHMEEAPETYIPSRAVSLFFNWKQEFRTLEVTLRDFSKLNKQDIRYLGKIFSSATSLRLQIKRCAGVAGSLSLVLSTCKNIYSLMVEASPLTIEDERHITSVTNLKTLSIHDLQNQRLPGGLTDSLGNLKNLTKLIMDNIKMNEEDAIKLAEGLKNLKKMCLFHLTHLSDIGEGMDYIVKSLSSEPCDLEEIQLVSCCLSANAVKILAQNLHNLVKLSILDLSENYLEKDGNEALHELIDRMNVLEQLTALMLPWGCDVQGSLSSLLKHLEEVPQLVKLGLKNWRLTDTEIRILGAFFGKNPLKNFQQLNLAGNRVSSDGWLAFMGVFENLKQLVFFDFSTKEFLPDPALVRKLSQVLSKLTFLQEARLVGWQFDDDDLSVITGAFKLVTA

- binding result [1]: no binding
B1: Flag-tagged CARD-deleted mutant (residues 80-1024) of Ipaf (other)
chain: DYKDDDDKLFQDLNGQSLFHQTSEGDLDDLAQDLKDLYHTPSFLNFYPLGEDIDIIFNLKSTFTEPVLWRKDQHHHRVEQLTLNGLLQALQSPCIIEGESGKGKSTLLQRIAMLWGSGKCKALTKFKFVFFLRLSRAQGGLFETLCDQLLDIPGTIRKQTFMAMLLKLRQRVLFLLDGYNEFKPQNCPEIEALIKENHRFKNMVIVTTTTECLRHIRQFGALTAEVGDMTEDSAQALIREVLIKELAEGLLLQIQKSRCLRNLMKTPLFVVITCAIQMGESEFHSHTQTTLFHTFYDLLIQKNKHKHKGVAASDFIRSLDHCGDLALEGVFSHKFDFELQDVSSVNEDVLLTTGLLCKYTAQRFKPKYKFFHKSFQEYTAGRRLSSLLTSHEPEEVTKGNGYLQKMVSISDITSTYSSLLRYTCGSSVEATRAVMKHLAAVYQHGCLLGLSIAKRPLWRQESLQSVKNTTEQEILKAININSFVECGIHLYQESTSKSALSQEFEAFFQGKSLYINSGNIPDYLFDFFEHLPNCASALDFIKLDFYGGAMASWEKAAEDTGGIHMEEAPETYIPSRAVSLFFNWKQEFRTLEVTLRDFSKLNKQDIRYLGKIFSSATSLRLQIKRCAGVAGSLSLVLSTCKNIYSLMVEASPLTIEDERHITSVTNLKTLSIHDLQNQRLPGGLTDSLGNLKNLTKLIMDNIKMNEEDAIKLAEGLKNLKKMCLFHLTHLSDIGEGMDYIVKSLSSEPCDLEEIQLVSCCLSANAVKILAQNLHNLVKLSILDLSENYLEKDGNEALHELIDRMNVLEQLTALMLPWGCDVQGSLSSLLKHLEEVPQLVKLGLKNWRLTDTEIRILGAFFGKNPLKNFQQLNLAGNRVSSDGWLAFMGVFENLKQLVFFDFSTKEFLPDPALVRKLSQVLSKLTFLQEARLVGWQFDDDDLSVITGAFKLVTA
notes: also called Flag-?CARD Ipag; CARD-truncated Ipaf mutant

B2: N-terminally Flag-tagged procaspase-1 (protein)
chain: DYKDDDDKMADKVLKEKRKLFIRSMGEGTINGLLDELLQTRVLNKEEMEKVKRENATVMDKTRALIDSVIPKGAQACQICITYICEEDSYLAGTLGLSADQTSGNYLNMQDSQGVLSSFPAPQAVQDNPAMPTSSGSEGNVKLCSLEEAQRIWKQKSAEIYPIMDKSSRTRLALIICNEEFDSIPRRTGAEVDITGMTMLLQNLGYSVDVKKNLTASDMTTELEAFAHRPEHKTSDSTFLVFMSHGIREGICGKKHSEQVPDILQLNAIFNMLNTKNCPSLKDKPKVIIIQACRGDSPGVVWFKDSVGVSGNLSLPTTEEFEDDAIKKAHIEKDFIAFCSSTPDNVSWRHPTMGSVFIGRLIEHMQEYACSCDVEEIFRKVRFSFEQPDGRAQMPTTERVTLTRCFYLFPGH
- proteolytic activation (processing) of procaspase-1, anti-Flag immunoblot of 293T lysates (Ipaf 1-661): Co-expression of the LRR-truncated Ipaf mutant, but not the full-length protein, was able to induce proteolytic activation of procaspase-1
- proteolytic activation (processing) of procaspase-1, anti-Flag immunoblot of 293T lysates [2]: Co-expression of the LRR-truncated Ipaf mutant, but not the full-length protein, was able to induce proteolytic activation of procaspase-1
